According to publication PMC10716038, “Talin and kindlin use integrin tail allostery and direct binding to activate integrins” (Nature Structural & Molecular Biology, 2023):
No end group written: not given here.

What was measured:
Experiment in all cases: MST; unlabelled protein titrated to 50-200 nM ATTO 488-labelled β-CT peptide, no third protein; 20 mM Tris pH 7.5, 200 mM NaCl, 1 mM TCEP, 0.05% Tween-20; Kd of individual titrations (in S0002 mean and sd, n = 2)
Settings in all cases: both partners purified
[1] = molecular target: T1, talin-1 head domain (THD1) (UniProt P26039 1-405)
T1 construct: talin-1 (TLN1) head domain (THD), residues 1-405; murine TLN1 cDNA is named only for the cell lines; also called WT; source: E. coli (DE3) Rosetta 2, purified (IMAC, SEC); not shown: His10-SUMO, N-terminal, cleaved
T1 sequence (P26039 1-405): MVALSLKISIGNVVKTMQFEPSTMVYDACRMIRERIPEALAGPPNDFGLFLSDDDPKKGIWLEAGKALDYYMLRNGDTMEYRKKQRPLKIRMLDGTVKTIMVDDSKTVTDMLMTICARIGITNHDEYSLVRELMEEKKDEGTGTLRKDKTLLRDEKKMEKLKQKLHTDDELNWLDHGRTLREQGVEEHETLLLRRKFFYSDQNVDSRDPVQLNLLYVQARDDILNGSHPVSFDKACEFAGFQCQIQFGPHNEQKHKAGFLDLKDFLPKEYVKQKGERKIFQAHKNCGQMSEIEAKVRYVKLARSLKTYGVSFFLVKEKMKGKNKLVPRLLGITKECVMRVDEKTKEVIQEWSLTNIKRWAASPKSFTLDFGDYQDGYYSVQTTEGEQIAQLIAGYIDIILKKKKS

THD1 K403A = molecular target: T2, THD1 K403A (UniProt P26039 1-405, K403A)
T2 construct: talin-1 (TLN1) head domain, residues 1-405, K403A; source: E. coli (DE3) Rosetta 2, purified (IMAC, SEC); not shown: His10-SUMO, N-terminal, cleaved
T2 sequence (P26039 1-405 K403A): as the sequence (P26039 1-405) above, with K403A counted along it

THD1 K403E = molecular target: T3, THD1 K403E (UniProt P26039 1-405, K403E)
T3 construct: talin-1 (TLN1) head domain, residues 1-405, K403E; source: E. coli (DE3) Rosetta 2, purified (IMAC, SEC); not shown: His10-SUMO, N-terminal, cleaved
T3 sequence (P26039 1-405 K403E): as the sequence (P26039 1-405) above, with K403E counted along it

THD1 K404A = molecular target: T4, THD1 K404A (UniProt P26039 1-405, K404A)
T4 construct: talin-1 (TLN1) head domain, residues 1-405, K404A; source: E. coli (DE3) Rosetta 2, purified (IMAC, SEC); not shown: His10-SUMO, N-terminal, cleaved
T4 sequence (P26039 1-405 K404A): as the sequence (P26039 1-405) above, with K404A counted along it

THD1 KKAA = molecular target: T5, THD1 KKAA (UniProt P26039 1-405, KKAA (KK402/403))
T5 construct: the sheet prints only 'KKAA'; source: E. coli (DE3) Rosetta 2, purified (IMAC, SEC); not shown: His10-SUMO, N-terminal, cleaved
T5 sequence (P26039 other isoform, or with tags, fused parts or gaps KKAA (KK402/403) | KKAA (KK402/403)): as the sequence (P26039 1-405) above, with K402A, K403A counted along it

THD1 Δ401-405 = molecular target: T6, THD1 Δ401-405 (UniProt P26039 1-405, Δ401-405)
T6 construct: source: E. coli (DE3) Rosetta 2, purified (IMAC, SEC); not shown: His10-SUMO, N-terminal, cleaved
T6 sequence (P26039 1-400, stated change not applied): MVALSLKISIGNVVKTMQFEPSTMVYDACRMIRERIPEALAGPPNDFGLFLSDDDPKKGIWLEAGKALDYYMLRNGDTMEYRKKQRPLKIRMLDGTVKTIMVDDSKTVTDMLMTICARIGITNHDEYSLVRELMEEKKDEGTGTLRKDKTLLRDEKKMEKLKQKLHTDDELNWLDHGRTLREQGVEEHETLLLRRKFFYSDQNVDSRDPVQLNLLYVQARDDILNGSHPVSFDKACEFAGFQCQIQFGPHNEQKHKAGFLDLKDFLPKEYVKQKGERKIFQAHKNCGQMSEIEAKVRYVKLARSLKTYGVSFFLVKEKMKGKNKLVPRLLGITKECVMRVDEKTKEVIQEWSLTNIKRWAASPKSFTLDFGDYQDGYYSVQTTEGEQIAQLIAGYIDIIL

THD1 Y395A = molecular target: T7, THD1 Y395A (UniProt P26039 1-405, Y395A)
T7 construct: talin-1 (TLN1) head domain, residues 1-405, Y395A; source: E. coli (DE3) Rosetta 2, purified (IMAC, SEC); not shown: His10-SUMO, N-terminal, cleaved
T7 sequence (P26039 1-405 Y395A): as the sequence (P26039 1-405) above, with Y395A counted along it

THD1 I398A = molecular target: T8, THD1 I398A (UniProt P26039 1-405, I398A)
T8 construct: talin-1 (TLN1) head domain, residues 1-405, I398A; source: E. coli (DE3) Rosetta 2, purified (IMAC, SEC); not shown: His10-SUMO, N-terminal, cleaved
T8 sequence (P26039 1-405 I398A): as the sequence (P26039 1-405) above, with I398A counted along it

THD1 I399A = molecular target: T9, THD1 I399A (UniProt P26039 1-405, I399A)
T9 construct: talin-1 (TLN1) head domain, residues 1-405, I399A; source: E. coli (DE3) Rosetta 2, purified (IMAC, SEC); not shown: His10-SUMO, N-terminal, cleaved
T9 sequence (P26039 1-405 I399A): as the sequence (P26039 1-405) above, with I399A counted along it

THD1 L400A = molecular target: T10, THD1 L400A (UniProt P26039 1-405, L400A)
T10 construct: talin-1 (TLN1) head domain, residues 1-405, L400A; source: E. coli (DE3) Rosetta 2, purified (IMAC, SEC); not shown: His10-SUMO, N-terminal, cleaved
T10 sequence (P26039 1-405 L400A): as the sequence (P26039 1-405) above, with L400A counted along it

THD1 K402A = molecular target: T11, THD1 K402A (UniProt P26039 1-405, K402A)
T11 construct: talin-1 (TLN1) head domain, residues 1-405, K402A; source: E. coli (DE3) Rosetta 2, purified (IMAC, SEC); not shown: His10-SUMO, N-terminal, cleaved
T11 sequence (P26039 1-405 K402A): as the sequence (P26039 1-405) above, with K402A counted along it

B1: ATTO 488-labeled integrin β3 cytoplasmic tail (488–β3-CT) (peptide, UniProt O54890 741-787, looked up)
peptide: {ATTO 488}-KLLITIHDRKEFAKFEEERARAKWDTANNPLYKEATSTFTNITYRGT
notes: integrin β3 cytoplasmic tail (β3-CT); source: synthetic peptide (MPIB Core Facility)
B1 was tested, and the Kd [1] was 105 µM, the Kd (THD1 K403A) was 68.1 µM and the Kd (THD1 K403E) was 60.9 µM. It also gave a Kd (THD1 K404A) of 90.1 µM, a Kd (THD1 KKAA) of 62.1 µM and a Kd (THD1 Δ401-405) of 250 µM. The Kd (THD1 Y395A) was 27.7 µM, the Kd (THD1 I398A) was 141 µM and the Kd (THD1 I399A) was 55.2 µM. It also gave a Kd (THD1 L400A) of 190 µM and a Kd (THD1 K402A) of 45 µM.
